Columns and labels:
[1] = 4-MU-6S-Palm-βGlc fluorometric assay, COS-1 lysates; settings: glycan lost; control: wild type
[2] = 35S-Cys pulse-chase, immunoprecipitation from COS-1 media; settings: glycan lost; control: wild type
[3] = immunofluorescence, LAMP-1 co-staining, transfected cells; settings: glycan lost; control: wild type
PPT1 F85del, P50897 = target: T1, PPT1 F85del, P50897; assay: GFP pull-down (co-immunoprecipitation with anti-GFP-agarose beads, anti-PPT1 immunoblot, quantified); settings: chain shown with the change; COS-1 cells, lysed 48 h post-transfection; single experiment; parent: est. 100; read off a plot
T1 chain: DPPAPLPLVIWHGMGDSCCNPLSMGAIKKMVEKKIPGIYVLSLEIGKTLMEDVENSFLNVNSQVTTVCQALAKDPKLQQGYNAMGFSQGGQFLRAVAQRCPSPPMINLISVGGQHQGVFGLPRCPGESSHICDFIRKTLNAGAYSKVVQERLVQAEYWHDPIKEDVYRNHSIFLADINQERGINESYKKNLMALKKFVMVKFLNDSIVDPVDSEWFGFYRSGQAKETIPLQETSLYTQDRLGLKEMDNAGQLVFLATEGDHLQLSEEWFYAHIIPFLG

B1: palmitoyl protein thioesterase 1 (PPT1): S214A (protein)
parent chain: MASPGCLWLLAVALLPWTCASRALQHLDPPAPLPLVIWHGMGDSCCNPLSMGAIKKMVEKKIPGIYVLSLEIGKTLMEDVENSFFLNVNSQVTTVCQALAKDPKLQQGYNAMGFSQGGQFLRAVAQRCPSPPMINLISVGGQHQGVFGLPRCPGESSHICDFIRKTLNAGAYSKVVQERLVQAEYWHDPIKEDVYRNHSIFLADINQERGINESYKKNLMALKKFVMVKFLNDSIVDPVDSEWFGFYRSGQAKETIPLQETSLYTQDRLGLKEMDNAGQLVFLATEGDHLQLSEEWFYAHIIPFLG
enzymatic activity, percent of wt [1]: 31% | expression_or_secretion [2]: no change | localisation_or_trafficking [3]: no change

B2: palmitoyl protein thioesterase 1 (PPT1): S234A (protein)
parent chain: B1 parent chain
expression_or_secretion [2]: decreases | localisation_or_trafficking [3]: decreases

B3: palmitoyl protein thioesterase 1 (PPT1): S199A (protein)
parent chain: B1 parent chain
expression_or_secretion [2]: abolishes | localisation_or_trafficking [3]: decreases

B4: palmitoyl protein thioesterase 1 (PPT1): S199A + S214A (protein)
parent chain: B1 parent chain
enzymatic_activity, percent_of_wt [1]: decreases | expression_or_secretion [2]: abolishes

B5: palmitoyl protein thioesterase 1 (PPT1), wild type, P50897 F85del (protein)
chain: T1 chain
percent of parent (PPT1 F85del, P50897): 150 % of WT
